# Source: paper doi:10.1101/2020.01.14.906479 (bioRxiv, 2020)
# Square brackets hold non-standard residues; d marks the D form. Ends that are not written are not given here. pS = N[C@@H](COP(=O)(O)O)C(=O)O
# Molecular target: T1, recombinant Plasmodium falciparum 14-3-3I (GST-14-3-3I fusion protein) (P. falciparum 3D7, UniProt C0H4V6 1-262)
# T1 sequence (looked up): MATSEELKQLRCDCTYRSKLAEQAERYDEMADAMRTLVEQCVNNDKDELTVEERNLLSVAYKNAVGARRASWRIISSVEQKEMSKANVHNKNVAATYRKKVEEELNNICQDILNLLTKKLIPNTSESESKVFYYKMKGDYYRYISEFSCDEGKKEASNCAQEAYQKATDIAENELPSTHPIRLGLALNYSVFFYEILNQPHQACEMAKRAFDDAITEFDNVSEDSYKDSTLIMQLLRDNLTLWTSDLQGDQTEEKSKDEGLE
# Experiment: ITC
binder,measurement,value
"ARSH[pS]YPA [phosphopeptide 1 (Mode I 14-3-3 recognition motif, ARSHpSYPA)]",Ka,1.7e+06 M⁻¹
same,dH,-11.3 ± 4.27 kcal/mol
"RLYH[pS]LPA [phosphopeptide 2 (Mode II 14-3-3 recognition motif, RLYHpSLPA)]",Ka,830000 M⁻¹
same,dH,-1.52 ± 0.096 kcal/mol
